Source: patent US20260103532A1 (published 2026)

Biological target: CD40 (UniProt P25942 21-193, limits assumed)
Assay: not stated (affinity given in the study drug description; no method)

Chain of CD40 (P25942 21-193 limits assumed): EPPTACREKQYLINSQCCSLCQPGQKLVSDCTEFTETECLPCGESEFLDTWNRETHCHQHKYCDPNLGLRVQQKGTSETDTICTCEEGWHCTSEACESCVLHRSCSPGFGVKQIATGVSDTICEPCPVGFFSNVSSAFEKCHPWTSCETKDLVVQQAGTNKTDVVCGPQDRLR

B1: KPL-404 (antibody, human IgG4 S228P, kappa, V domains shown)
VH: QVQLVQSGAEVKKPGASVKVSCKASGYTFTNYWMHWVRQAPGQRLEWIGYINPSNDYTKYNQKFKDRATLTADKSANTAYMELSSLRSEDTAVYYCARQGFPYWGQGTLVTVSS
VL: EIVLTQSPATLSLSPGERATLSCSASSSVSYMHWYQQKPGQAPRRWIYDTSKLASGVPARFSGSGSGTDYTLTISSLEPEDFAVYYCHQLSSDPFTFGGGTKVEIKR
notes: also called humanized anti-CD40 antibody; KPL-404 drug product
**Q.** For B1, which Kd is on record?
**A.** The Kd was 7.2 nM.
